Here are results for 56 substances from US10143730B2, “Peptides and combination of peptides for use in immunotherapy against various cancers” (immatics biotechnologies GmbH, priority 2015, dated 2018).

This assay has as its target T1, HLA-A*02 (Homo sapiens, UniProt P04439, D140Y/D185E/D98H/E176V/E277Q/G131W/G231S/I119V/I121R/I166T/I218V/L300P/N151K/N90K/P208A/P217A/Q86G/Q94H/R138H/R169H).
T1 construct: made in house
Description: MHC binding assay, UV-ligand exchange with beta2m ELISA (peptide exchange yield). The conditions noted are these: binding to HLA-A*02. From the text:
Candidate peptides for T cell based therapies according to the present invention were further tested for their MHC binding capacity (affinity). The individual peptide-MHC complexes were produced by UV-ligand exchange, where a UV-sensitive peptide is cleaved upon UV-irradiation, and exchanged with the peptide of interest as analyzed. Only peptide candidates that can effectively bind and stabilize the peptide-receptive MHC molecules prevent dissociation of the MHC complexes. To determine the yield of the exchange reaction, an ELISA was performed based on the detection of the light chain (β2m) of stabilized MHC complexes. The assay was performed as generally described in Rodenko et al. (Rodenko et al., 2006).
96 well MAXISorp plates (NUNC) were coated over night with 2 ug/ml streptavidin in PBS at room temperature, washed 4× and blocked for 1h at 37° C. in 2% BSA containing blocking buffer. Refolded HLA-A*02:01/MLA-001 monomers served as standards, covering the range of 15-500 ng/ml. Peptide-MHC monomers of the UV-exchange reaction were diluted 100 fold in blocking buffer. Samples were incubated for 1h at 37° C., washed four times, incubated with 2 ug/ml HRP conjugated anti-32m for 1h at 37° C., washed again and detected with TMB solution that is stopped with […]. Absorption was measured at 450 nm. Candidate peptides that show a high exchange yield (preferably higher than 50%, most preferred higher than 75%) are generally preferred for a generation and production of antibodies or fragments thereof, and/or T cell receptors or fragments thereof, as they show sufficient avidity to the MHC molecules and prevent dissociation of the MHC complexes.
In general terms: In an ELISA, binding on a coated surface is turned into a signal by an enzyme label.
With “30 (AMIEEVFEA; listed as Homo sapiens) [compound 30]”, the “Peptide exchange (MHC class I binding score, peptide exchange yield)” value (from here on “Peptide exchange”) is “++ (20%-49% = ++)”. Turning to “266 (YAIGLVMRL; listed as Homo sapiens) [compound 266]”, the “Peptide exchange” value is “+++ (50%-75% = +++)”. Next, “143 (ALLPELREV; listed as Homo sapiens) [compound 143]”: “+++ (50%-75% = +++)”. For “148 (MLAGIAITV; listed as Homo sapiens) [compound 148]”, the “Peptide exchange” value is listed as “+++ (50%-75% = +++)”.

As to “114 (QLIQTLHAV; listed as Homo sapiens) [compound 114]”, the “Peptide exchange” value is listed as “+++ (50%-75% = +++)”. Next, “84 (ALCPRIHEV; listed as Homo sapiens) [compound 84]”: “++++ (> = 75% = ++++)”.

For “123 (VLDPALPALV; listed as Homo sapiens) [compound 123]”, the “Peptide exchange” value was “++ (20%-49% = ++)”.

For “147 (YLMDDTVEI; listed as Homo sapiens) [compound 147]”, the “Peptide exchange” value is listed as “++++ (> = 75% = ++++)”. The result for “259 (ILLPRIIEA; listed as Homo sapiens) [compound 259]” reads “+++ (50%-75% = +++)”; that for “49 (ALNIATHVL; listed as Homo sapiens) [compound 49]”, “+++ (50%-75% = +++)”.

On to “59 (KLLDPQEFTL; listed as Homo sapiens) [compound 59]”, for which the “Peptide exchange” value is “+++ (50%-75% = +++)”.

Consider “88 (AQADHLPQL; listed as Homo sapiens) [compound 88]”, for which the “Peptide exchange” value was “++ (20%-49% = ++)”.

Consider “263 (VLLSEQGDVKL; listed as Homo sapiens) [compound 263]”, for which the “Peptide exchange” value is “++ (20%-49% = ++)”. Take “61 (AIVKEIVNI; listed as Homo sapiens) [compound 61]”: the “Peptide exchange” value is reported as “++ (20%-49% = ++)”. Next, “106 (FINDSIVYL; listed as Homo sapiens) [compound 106]”: “+++ (50%-75% = +++)”; “48 (QVIEDSTGV; listed as Homo sapiens) [compound 48]”: “++ (20%-49% = ++)”; “261 (QLQDRVYAL; listed as Homo sapiens) [compound 261]”: “+++ (50%-75% = +++)”.

In the case of “60 (ALFAPLVHL; listed as Homo sapiens) [compound 60]”, the “Peptide exchange” value is “+++ (50%-75% = +++)”. Consider “127 (KLDGNELDL; listed as Homo sapiens) [compound 127]”, for which the “Peptide exchange” value was “+++ (50%-75% = +++)”. Next, “133 (ALLPRLHQL; listed as Homo sapiens) [compound 133]”: “++++ (> = 75% = ++++)”. The result for “69 (FLAVGLVDV; listed as Homo sapiens) [compound 69]” reads “+++ (50%-75% = +++)”; that for “76 (AVGPVHNSV; listed as Homo sapiens) [compound 76]”, “++ (20%-49% = ++)”; that for “74 (TLFGYSVVL; listed as Homo sapiens) [compound 74]”, “+++ (50%-75% = +++)”.

For “46 (SQFPLPLAV; listed as Homo sapiens) [compound 46]”, the “Peptide exchange” value is reported as “++ (20%-49% = ++)”.

As for “125 (SLADYEHFV; listed as Homo sapiens) [compound 125]”, the “Peptide exchange” value was “++++ (> = 75% = ++++)”. The result for “240 (YMGEEKLIASV; listed as Homo sapiens) [compound 240]” reads “+++ (50%-75% = +++)”.

As for “94 (LLLPAVPVGA; listed as Homo sapiens) [compound 94]”, the “Peptide exchange” value was “+++ (50%-75% = +++)”.

Consider “10 (GIAGSLKTV; listed as Homo sapiens) [compound 10]”, for which the “Peptide exchange” value is given as “+++ (50%-75% = +++)”. For the substance “16 (YTLDIPVLFGV; listed as Homo sapiens) [compound 16]”, the “Peptide exchange” value was “++++ (> = 75% = ++++)”. The result for “145 (YLWATIQRI; listed as Homo sapiens) [compound 145]” reads “+++ (50%-75% = +++)”; that for “44 (SLFETAWEA; listed as Homo sapiens) [compound 44]”, “+++ (50%-75% = +++)”. The result for “21 (AIQDEIRSV; listed as Homo sapiens) [compound 21]” reads “+++ (50%-75% = +++)”; that for “51 (LLFSRLCGA; listed as Homo sapiens) [compound 51]”, “++++ (> = 75% = ++++)”. The result for “32 (VQLDSIEDLEV; listed as Homo sapiens) [compound 32]” reads “+++ (50%-75% = +++)”. For the substance “237 (ALAPHLDDA; listed as Homo sapiens) [compound 237]”, the “Peptide exchange” value is “+++ (50%-75% = +++)”.

“3 (KLEENGDLYL; listed as Homo sapiens) [compound 3]”: the “Peptide exchange” value is “++++ (> = 75% = ++++)”. With “53 (KMVGLVVAI; listed as Homo sapiens) [compound 53]”, the “Peptide exchange” value was “+++ (50%-75% = +++)”.

Regarding “155 (LLNPVVEFV; listed as Homo sapiens) [compound 155]”, the “Peptide exchange” value is reported as “+++ (50%-75% = +++)”. The result for “63 (SQIPAQPSV; listed as Homo sapiens) [compound 63]” reads “++ (20%-49% = ++)”. The result for “41 (ALFENTPKA; listed as Homo sapiens) [compound 41]” reads “++ (20%-49% = ++)”; that for “38 (FLGPRIIGL; listed as Homo sapiens) [compound 38]”, “+++ (50%-75% = +++)”; that for “262 (FMVDKAIYL; listed as Homo sapiens) [compound 262]”, “+++ (50%-75% = +++)”. For “62 (ALNPELVQA; listed as Homo sapiens) [compound 62]”, the “Peptide exchange” value is recorded as “++ (20%-49% = ++)”. The result for “154 (RLLGTEFQV; listed as Homo sapiens) [compound 154]” reads “+++ (50%-75% = +++)”. The result for “58 (YLLPLLPAL; listed as Homo sapiens) [compound 58]” reads “+++ (50%-75% = +++)”; that for “244 (YLLEKNRVV; listed as Homo sapiens) [compound 244]”, “++ (20%-49% = ++)”; that for “13 (ALMAMLVYV; listed as Homo sapiens) [compound 13]”, “++ (20%-49% = ++)”. Next, “57 (TVFTDHMLTV; listed as Homo sapiens) [compound 57]”: “++ (20%-49% = ++)”; “115 (SLDPDTLPAV; listed as Homo sapiens) [compound 115]”: “++ (20%-49% = ++)”; “257 (GLYTDPCGV; listed as Homo sapiens) [compound 257]”: “++++ (> = 75% = ++++)”.

Consider “239 (KMNESTRSV; listed as Homo sapiens) [compound 239]”, for which the “Peptide exchange” value is “++ (20%-49% = ++)”. Next, “47 (ALLERGELFV; listed as Homo sapiens) [compound 47]”: “+++ (50%-75% = +++)”; “121 (FTIFRTISV; listed as Homo sapiens) [compound 121]”: “+++ (50%-75% = +++)”.

As for “81 (NALDKVLSV; listed as Homo sapiens) [compound 81]”, the “Peptide exchange” value is listed as “+++ (50%-75% = +++)”. The result for “131 (VTSNSGILGV; listed as Homo sapiens) [compound 131]” reads “+++ (50%-75% = +++)”; that for “122 (GVVDPVHGV; listed as Homo sapiens) [compound 122]”, “++ (20%-49% = ++)”.
